Data on eight molecules can be found in paper PMC4016012, “Successful Conversion of the Bacillus subtilis BirA Group II Biotin Protein Ligase into a Group I Ligase” (PLoS ONE, 2014).

Series [1] addresses T1, BirA (biotin protein ligase, Group II) (Bacillus subtilis 168) (UniProt P0CI75).
T1 sequence: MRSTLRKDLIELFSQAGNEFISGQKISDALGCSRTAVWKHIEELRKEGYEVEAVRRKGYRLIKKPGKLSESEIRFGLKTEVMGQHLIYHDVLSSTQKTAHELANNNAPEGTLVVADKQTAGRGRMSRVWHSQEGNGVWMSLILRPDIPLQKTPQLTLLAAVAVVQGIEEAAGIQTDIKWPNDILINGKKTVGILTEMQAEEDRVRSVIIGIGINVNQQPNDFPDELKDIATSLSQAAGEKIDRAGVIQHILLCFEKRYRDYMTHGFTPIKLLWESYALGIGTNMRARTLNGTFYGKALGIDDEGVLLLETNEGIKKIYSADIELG
Kind of series: EMSA. As to conditions: 50 mM Tris-HCl pH 8.0, 1 mM EDTA, 50 mM NaCl, 10% glycerol, 40 nM DNA, 15.6-500 nM BirA, 1 mM ATP, 1 mM MgCl2, 1 uM biotin; room temperature 30 min; 6% gel in …. (A gel shift assay detects complexes by their altered migration in electrophoresis.)

Series [2] concerns the molecule itself. Nature of the series: cross-linking; purified BirA 30 µM in 50 mM HEPES pH 7.5, 500 mM NaCl, 0.1 mM TCEP, 5% glycerol; with biotin (0.1 mM) and ATP (0.1 mM), room temperature 30 min; EGS 0.125-0.5 mM, room temperature 30 min; SDS-PAGE on 4-20% gels.

Turning to “AACGATCGGGATTTCCATTTTCATCGATTCCAAAATGGCTACCTCCTGGCCCTTTTCGATTTGGTCGCCGGCTTTGACGTGGACTTTCCACAGGTTTCCTGCCATTTGTATGCTAACCGTCATGC (double strand) [non-operator DNA (yngHB/blap internal fragment)]”, the binding result in series [1] was “no binding”.

Take “ATTCAAAGGTTAACAATTAGAATATATTATTCTCTCCTGTTTCTGTCAATAGAAGAAAGGATCGATTTATGGCAGTTGGTTAAAAGGAAACAAAAAGACCGTTTTCACACAAAACGGTCTTTTTC (double strand) [B. subtilis bioO half site]”: the binding result in series [1] was “no binding”.

Turning to “CCAAAAAGTAATCAAATATGGTTATACAATAAATGCAGGTAATTATTATGTCAACTGATTTTTAATTTAAGTTTACATAATGAACGCAAAAAAACCGGCCGTATGGCAGACCGGTTTTTGATGGT (double strand) [yhfU operator]”, the binding result in series [1] was “binds”.

As for “CCCTTAGGTTGACATACACAATCATAGAGTAATAAAGAACAAAAAGATTGTCAACATGATTTTAAATTAGGTTAACAAAAAGGAGGCCCATATGTATTTCGGAAAAACAAGACAGTCCGATCAAT (double strand) [yuiG operator]”, the binding result in series [1] is “binds”.

Take “CCTTTCACTGATAACTGAAGAACGTGTAGCGCTTCTCACCTAAATTGTTAACCAATTATATTCAAAGGTTAACAATTAGAATATATTATTCTCTCCTGTTTCTGTCAATAGAAGAAAGGATC (double strand) [B. subtilis bioO (bioWAFDBI operator)]”: in series [1], the binding entry is listed as “binds”.

For the molecule “GGGGCTTCTCCAAAACGTGTTTTTTGTTGTTAATTCGGTGTAGACTTGTAAACCTAAATCTTTTCAATTTGGTTTACAAGTCGATTATGACAACGGACGATCTTGCCTTTGACCAACGCCATATC (double strand) [E. coli bioO]”, in series [1], the binding entry is listed as “binds more weakly”.

B1: B. subtilis N-terminally hexahistidine-tagged Δ2-65 BirA (domain or fragment, Bacillus subtilis, UniProt P0CI75 66-325, looked up)
chain: GKLSESEIRFGLKTEVMGQHLIYHDVLSSTQKTAHELANNNAPEGTLVVADKQTAGRGRMSRVWHSQEGNGVWMSLILRPDIPLQKTPQLTLLAAVAVVQGIEEAAGIQTDIKWPNDILINGKKTVGILTEMQAEEDRVRSVIIGIGINVNQQPNDFPDELKDIATSLSQAAGEKIDRAGVIQHILLCFEKRYRDYMTHGFTPIKLLWESYALGIGTNMRARTLNGTFYGKALGIDDEGVLLLETNEGIKKIYSADIELG
notes: no step that removes the tag is described; Primer SKH047 (BirA 66-325 NdeI F) reads ATGGGAAAACTCAGTGAAAGC, i.e. M-GKLSES; also called BirA 66-325; Δ2-66 BirA (so named in the methods); source: E. coli BL21 (λ DE3) with pSKH020, purified (Ni NTA)
As for B1, in series [2], the stoichiometry N – broadly, a count of units in the complex or per binding partner – is 2.

B2: B. subtilis N-terminally hexahistidine-tagged BirA (enzyme, Bacillus subtilis, UniProt P0CI75 1-325, looked up)
chain: T1 sequence
notes: 325 residues by the names of the constructs (64-325 etc.); no step that removes the tag is described; The vector is pET19b, whose own tag may be longer than six histidines and is followed by a linker (surmise); also called wild type BirA; B. subtilis BirA; source: E. coli BL21 (λ DE3) with pSKH001, purified (Ni NTA)
As for B2, the “stoichiometry N” value in series [2] is 2.
